From IntAct's records for PubMed 22340593

B1: Tumor protein p73 (Homo sapiens), O15350 (parent)
chain: MAQSTATSPDGGTTFEHLWSSLEPDSTYFDLPQSSRGNNEVVGGTDSSMDVFHLEGMTTSVMAQFNLLSSTMDQMSSRAASASPYTPEHAASVPTHSPYAQPSSTFDTMSPAPVIPSNTDYPGPHHFEVTFQQSSTAKSATWTYSPLLKKLYCQIAKTCPIQIKVSTPPPPGTAIRAMPVYKKAEHVTDVVKRCPNHELGRDFNEGQSAPASHLIRVEGNNLSQYVDDPVTGRQSVVVPYEPPQVGTEFTTILYNFMCNSSCVGGMNRRPILIIITLEMRDGQVLGRRSFEGRICACPGRDRKADEDHYREQQALNESSAKNGAASKRAFKQSPPAVPALGAGVKKRRHGDEDTYYLQVRGRENFEILMKLKESLELMELVPQPLVDSYRQQQQLLQRPSHLQPPSYGPVLSPMNKVHGGMNKLPSVNQLVGQPPPHSSAATPNLGPVGPGMLNNHGHAVPANGEMSSSHSAQSMVSGSHCTPPPPYHADPSLVSFLTGLGCPNCIEYFTSQGLQSIYHLQNLTIEDLGALKIPEQYRMTIWRGLQDLKQGHDYSTAQQLLRSSNAATISIGGSGELQRQRVMEAVHFRVRHTITIPNRGGPGGGPDEWADFGFDLPDCKARKQPIKEEFTEAEIH
B2: Tumor protein p73 (Homo sapiens), O15350 (parent)
chain: B1 chain
partner: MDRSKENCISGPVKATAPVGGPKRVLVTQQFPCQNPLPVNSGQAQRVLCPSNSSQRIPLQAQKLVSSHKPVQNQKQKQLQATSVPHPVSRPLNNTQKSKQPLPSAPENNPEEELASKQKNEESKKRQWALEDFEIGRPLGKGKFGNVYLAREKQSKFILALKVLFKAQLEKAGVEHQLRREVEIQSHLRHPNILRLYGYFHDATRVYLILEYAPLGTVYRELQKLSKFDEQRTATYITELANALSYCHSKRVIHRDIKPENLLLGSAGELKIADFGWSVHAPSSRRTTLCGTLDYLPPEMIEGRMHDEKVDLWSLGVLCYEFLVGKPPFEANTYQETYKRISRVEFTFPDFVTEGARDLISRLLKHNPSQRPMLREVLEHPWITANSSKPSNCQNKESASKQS

Variants of: B1
Settings: with hspa9_human HSPA9, P38646
Chain of hspa9_human HSPA9, P38646 (P38646 whole entry): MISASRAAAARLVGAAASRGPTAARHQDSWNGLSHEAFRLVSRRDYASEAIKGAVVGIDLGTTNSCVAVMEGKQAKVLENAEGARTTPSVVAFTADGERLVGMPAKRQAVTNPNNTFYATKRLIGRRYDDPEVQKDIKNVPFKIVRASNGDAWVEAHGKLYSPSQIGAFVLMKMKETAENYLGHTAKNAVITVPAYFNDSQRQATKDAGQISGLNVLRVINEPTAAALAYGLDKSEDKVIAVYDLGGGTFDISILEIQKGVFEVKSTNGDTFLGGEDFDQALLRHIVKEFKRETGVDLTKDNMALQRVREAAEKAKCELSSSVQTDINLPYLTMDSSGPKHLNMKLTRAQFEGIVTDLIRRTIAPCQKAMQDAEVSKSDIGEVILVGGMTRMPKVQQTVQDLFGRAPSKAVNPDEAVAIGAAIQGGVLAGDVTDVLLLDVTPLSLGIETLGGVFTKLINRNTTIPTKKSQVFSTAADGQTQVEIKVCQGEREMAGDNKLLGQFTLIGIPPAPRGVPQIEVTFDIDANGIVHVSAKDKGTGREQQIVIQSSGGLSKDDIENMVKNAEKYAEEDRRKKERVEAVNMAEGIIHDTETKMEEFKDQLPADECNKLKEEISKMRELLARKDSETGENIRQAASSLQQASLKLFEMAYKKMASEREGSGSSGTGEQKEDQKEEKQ

Variant | effect of a mutation on the interaction
S235D | increasing interaction strength

Variants of: B2
Settings: with aurka_human AURKA

Variant | effect of a mutation on the interaction
S235D | increasing interaction strength
